Assay results: the supplement of paper PMC9233669
This sample holds only a part of the variants without activity.

Legend:
biotinyl-Met-oxazolone = assay: self-aminoacylation, catalytic enhancement (BMO) (fold over background); higher = more active; k-Seq, kA / k0A0; sequences stand for … in GGGAAUGGAUCCACAUCUACGAAUUC…UUCACUGCAGACUUGACGAAGCUG
Outline: (§1)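 Mutagenized RNA pools with a 21-nt variable region (0.43 μM) reacted with each biotinyl-aminoacyl-oxazolone at 2–1250 μM. Reactions ran in 50 μL HEPES/NaCl/KCl/MgCl2/CaCl2 buffer with 5% acetonitrile, pH 6.9–7.0, for 90 minutes at room temperature. Streptavidin-captured RNA was quantified by triplicate qPCR and Illumina sequencing, and per-sequence fraction reacted was fit to a pseudo-first-order model with 1000 bootstraps. Catalytic enhancement is median kA divided by the uncatalyzed rate, the low-activity peak of a bimodal Gaussian fit.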

biotinyl-Ile-oxazolone = assay: self-aminoacylation, catalytic enhancement (BIO) (fold over background); higher = more active; k-Seq, kA / k0A0; sequences stand for … in GGGAAUGGAUCCACAUCUACGAAUUC…UUCACUGCAGACUUGACGAAGCUG
Outline: as §1

biotinyl-Phe-oxazolone = assay: self-aminoacylation, catalytic enhancement (BFO) (fold over background); higher = more active; k-Seq, kA / k0A0; sequences stand for … in GGGAAUGGAUCCACAUCUACGAAUUC…UUCACUGCAGACUUGACGAAGCUG
Outline: as §1

biotinyl-Trp-oxazolone = assay: self-aminoacylation, catalytic enhancement (BWO) (fold over background); higher = more active; k-Seq, kA / k0A0; sequences stand for … in GGGAAUGGAUCCACAUCUACGAAUUC…UUCACUGCAGACUUGACGAAGCUG
Outline: as §1

biotinyl-Val-oxazolone = assay: self-aminoacylation, catalytic enhancement (BVO) (fold over background); higher = more active; k-Seq, kA / k0A0; sequences stand for … in GGGAAUGGAUCCACAUCUACGAAUUC…UUCACUGCAGACUUGACGAAGCUG
Outline: as §1

biotinyl-Leu-oxazolone = assay: self-aminoacylation, catalytic enhancement (BLO) (fold over background); higher = more active; k-Seq, kA / k0A0; sequences stand for … in GGGAAUGGAUCCACAUCUACGAAUUC…UUCACUGCAGACUUGACGAAGCUG
Outline: as §1

Row | Sequence | self-aminoacylation (biotinyl-Met-oxazolone) | self-aminoacylation (biotinyl-Ile-oxazolone) | self-aminoacylation (biotinyl-Phe-oxazolone) | self-aminoacylation (biotinyl-Trp-oxazolone) | self-aminoacylation (biotinyl-Val-oxazolone) | self-aminoacylation (biotinyl-Leu-oxazolone)
1 | CAACUUCAAACAAUCGGUCUU [Fam1A.1 aminoacylation ribozyme variant] | 1.53 | 1.59 | 45.8 | 27.7 | 1.5 | 2.43
2 | CAACUUCAAACAUUCGGUCUG [Fam1A.1 aminoacylation ribozyme variant] | 1.34 | 1.53 | 11.5 | 1.74 | 1.57 | 1.5
3 | CAACUUCAAAUAAUCGGUCUG [Fam1A.1 aminoacylation ribozyme variant] | 1.05 | 1.27 | 15.6 | 12.2 | 1.11 | 1.39
4 | CAACUUCAAGCAAUCGGUCUG [Fam1A.1 aminoacylation ribozyme variant] | 1.59 | 1.54 | 27.2 | 20.5 | 1.39 | 2.26
5 | CAGCUUGCUAAUAGUCGCAAG [Fam3.1 aminoacylation ribozyme variant] | 1.72 | 1.82 | 2.54 | 1.72 | 1.86 | 1.89
6 | CAGUUUGAUAAUAGUCGCAAG [Fam3.1 aminoacylation ribozyme variant] | 1.32 | 1.4 | 1.89 | 1.26 | 1.54 | 1.34
7 | CAGUUUGCCAAUAGUCGCAAG [Fam3.1 aminoacylation ribozyme variant] | 1.83 | 2.08 | 6.08 | 1.34 | 1.82 | 1.91
8 | CAGUUUGCUAAAAGUCGCAAG [Fam3.1 aminoacylation ribozyme variant] | 1.64 | 1.46 | 1.86 | 1.3 | 1.4 | 1.5
9 | CAGUUUGCUAAUAGUCGCCAG [Fam3.1 aminoacylation ribozyme variant] | 1.91 | 1.86 | 10.1 | 2.45 | 2.17 | 2.43
10 | CAGUUUGCUGAUAGUCGCAAG [Fam3.1 aminoacylation ribozyme variant] | 1.11 | 1.34 | 1.88 | 1.99 | 1.27 | 1.17
11 | CAGUUUGUUAAUAGUCGCAAG [Fam3.1 aminoacylation ribozyme variant] | 1.74 | 1.57 | 2.25 | 1.37 | 1.42 | 1.64
12 | CAUACCCUGGUCAUCGAGUGA [Fam2.1 aminoacylation ribozyme variant] | 11.3 | 5.75 | 17.6 | 11.7 | 6.04 | 11.8
13 | CAUCACUUCAAGCAAUCGGUC [Fam1B.1 aminoacylation ribozyme variant] | 1.09 | 1.17 | 32.7 | 15.6 | 1.2 | 1.47
14 | CCAAAAUUCAAGCAAUCGGUC [Fam1B.1 aminoacylation ribozyme variant] | 1.01 | 1.17 | 1.09 | 1.13 | 1.21 | 1.08
15 | CCAAACUUCAAGAAAUCGGUC [Fam1B.1 aminoacylation ribozyme variant] | 0.927 | 0.936 | 6.01 | 5.02 | 0.84 | 0.986
16 | CCAAACUUCAAGCAAUCGGUC [Fam1B.1 aminoacylation ribozyme variant] | 1.02 | 1.19 | 30.1 | 15.6 | 1.26 | 1.41
17 | CCAAACUUCAAGCAUUCGGUC [Fam1B.1 aminoacylation ribozyme variant] | 1.83 | 2.1 | 1.96 | 1.75 | 1.86 | 1.84
18 | CCACAAUUAAAGCAAUCGGUC [Fam1B.1 aminoacylation ribozyme variant] | 0.88 | 1.13 | 0.833 | 0.66 | 1.13 | 0.881
19 | CCACAAUUCAAGCAAGCGGUC [Fam1B.1 aminoacylation ribozyme variant] | 1.3 | 1.3 | 0.932 | 0.509 | 1.42 | 0.998
20 | CCACAAUUCAAGCAAUCGGCC [Fam1B.1 aminoacylation ribozyme variant] | 4.55 | 4.08 | 5.63 | 3.88 | 4.38 | 3.52
21 | CCACAAUUCAAGCAAUCGUUC [Fam1B.1 aminoacylation ribozyme variant] | 0.815 | 0.909 | 1.06 | 0.719 | 0.864 | 0.713
22 | CCACAAUUCAAGCAAUCUGUC [Fam1B.1 aminoacylation ribozyme variant] | 0.524 | 0.576 | 0.965 | 0.559 | 0.746 | 0.558
23 | CCACAAUUCAAGCAAUGGGUC [Fam1B.1 aminoacylation ribozyme variant] | 1.13 | 1.22 | 0.531 | 0.734 | 1.03 | 1.17
24 | CCACAAUUCAAGUAAUCGGUC [Fam1B.1 aminoacylation ribozyme variant] | 0.906 | 0.96 | 2.55 | 1.36 | 0.91 | 0.898
25 | CCACAAUUCAUGCAAUCGGUC [Fam1B.1 aminoacylation ribozyme variant] | 1.1 | 1.25 | 1.19 | 0.87 | 1.41 | 1.16
